Measured values: patent publication EP1865065A1

Columns and labels:
Assay in all cases: cell-based or functional assay
[1] = molecular target: murine Intercellular adhesion molecule-1 (ICAM-1, CD54) (murine) (UniProt P13597)
[2] = molecular target: murine LFA-3 (CD48) (murine) (UniProt P18181)
[3] = molecular target: murine B7-1 (CD80) (murine) (UniProt Q00609)
Chain of UniProt Q00609 (Q00609 38-306): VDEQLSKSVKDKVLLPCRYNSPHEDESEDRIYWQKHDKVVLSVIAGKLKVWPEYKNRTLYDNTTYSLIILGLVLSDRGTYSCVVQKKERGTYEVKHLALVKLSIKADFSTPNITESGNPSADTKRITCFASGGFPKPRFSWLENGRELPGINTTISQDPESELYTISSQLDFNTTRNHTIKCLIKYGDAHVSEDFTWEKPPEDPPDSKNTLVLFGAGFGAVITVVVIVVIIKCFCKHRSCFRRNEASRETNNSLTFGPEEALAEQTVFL

Chain of UniProt P13597 (P13597 28-537): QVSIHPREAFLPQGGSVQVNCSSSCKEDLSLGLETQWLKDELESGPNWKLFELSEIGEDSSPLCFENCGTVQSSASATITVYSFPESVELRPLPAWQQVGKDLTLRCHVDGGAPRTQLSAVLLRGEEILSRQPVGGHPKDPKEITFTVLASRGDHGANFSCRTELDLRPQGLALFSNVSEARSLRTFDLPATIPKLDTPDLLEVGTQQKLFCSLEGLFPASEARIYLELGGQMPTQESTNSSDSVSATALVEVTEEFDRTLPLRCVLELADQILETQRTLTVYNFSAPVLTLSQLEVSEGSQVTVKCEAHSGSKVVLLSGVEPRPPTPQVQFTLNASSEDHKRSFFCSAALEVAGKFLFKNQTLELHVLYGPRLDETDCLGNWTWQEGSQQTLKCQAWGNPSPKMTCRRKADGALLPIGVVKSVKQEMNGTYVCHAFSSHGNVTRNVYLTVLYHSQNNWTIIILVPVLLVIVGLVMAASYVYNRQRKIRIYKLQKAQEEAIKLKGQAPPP
Chain of UniProt P18181 (P18181 23-217): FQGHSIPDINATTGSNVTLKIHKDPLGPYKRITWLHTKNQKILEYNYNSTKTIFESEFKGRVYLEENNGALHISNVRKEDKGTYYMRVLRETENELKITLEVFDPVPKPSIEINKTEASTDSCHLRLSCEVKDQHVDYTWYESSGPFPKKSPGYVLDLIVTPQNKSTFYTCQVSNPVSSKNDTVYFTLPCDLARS

## Hamster anti-murine CD54 (ICAM-1; clone 3E2) (antibody)
[1]
  reduction of the increased T-cell proliferation (3H-Thymidine) induced by MC38/ICAM-1 stimulator cells with Con A: 88%

## Hamster anti-murine CD48 (BCM-1; clone HM48-1) (antibody)
[2]
  reduction of the increased T-cell proliferation (3H-Thymidine) induced by MC38/LFA-3 stimulator cells with Con A: 98%

## Hamster anti-murine CD80 (B7-1; clone 16-10A1) (antibody)
[3]
  inhibition of the increased T-cell proliferation (3H-Thymidine) induced by MC38/B7-1 stimulator cells with Con A: 83%
